Where a chain is given by its changes, count along the chain named.
Legend:
[1] = biological target: T1, 336(P4-P2)562 factor VIIIa mutant
T1 chain 1: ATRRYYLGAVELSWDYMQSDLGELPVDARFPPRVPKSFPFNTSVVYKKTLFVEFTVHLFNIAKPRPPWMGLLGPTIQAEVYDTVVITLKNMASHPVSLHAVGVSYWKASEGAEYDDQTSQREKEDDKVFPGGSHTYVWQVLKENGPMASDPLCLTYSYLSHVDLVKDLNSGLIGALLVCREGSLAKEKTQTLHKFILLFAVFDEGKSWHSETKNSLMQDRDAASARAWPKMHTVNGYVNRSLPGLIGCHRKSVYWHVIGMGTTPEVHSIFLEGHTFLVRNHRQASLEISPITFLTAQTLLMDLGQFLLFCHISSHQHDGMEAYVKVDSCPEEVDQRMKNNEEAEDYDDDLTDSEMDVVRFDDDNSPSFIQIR
T1 chain 2: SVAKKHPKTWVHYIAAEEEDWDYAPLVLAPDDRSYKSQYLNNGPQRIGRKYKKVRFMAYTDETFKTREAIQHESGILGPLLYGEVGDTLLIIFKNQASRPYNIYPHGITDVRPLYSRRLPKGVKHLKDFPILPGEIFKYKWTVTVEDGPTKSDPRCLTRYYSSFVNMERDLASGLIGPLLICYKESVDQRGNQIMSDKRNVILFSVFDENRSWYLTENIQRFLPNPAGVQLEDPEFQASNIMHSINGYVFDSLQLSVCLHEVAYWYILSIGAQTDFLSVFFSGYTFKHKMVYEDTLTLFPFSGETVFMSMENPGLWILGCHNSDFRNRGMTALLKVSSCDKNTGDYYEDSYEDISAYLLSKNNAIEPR
T1 chain 3: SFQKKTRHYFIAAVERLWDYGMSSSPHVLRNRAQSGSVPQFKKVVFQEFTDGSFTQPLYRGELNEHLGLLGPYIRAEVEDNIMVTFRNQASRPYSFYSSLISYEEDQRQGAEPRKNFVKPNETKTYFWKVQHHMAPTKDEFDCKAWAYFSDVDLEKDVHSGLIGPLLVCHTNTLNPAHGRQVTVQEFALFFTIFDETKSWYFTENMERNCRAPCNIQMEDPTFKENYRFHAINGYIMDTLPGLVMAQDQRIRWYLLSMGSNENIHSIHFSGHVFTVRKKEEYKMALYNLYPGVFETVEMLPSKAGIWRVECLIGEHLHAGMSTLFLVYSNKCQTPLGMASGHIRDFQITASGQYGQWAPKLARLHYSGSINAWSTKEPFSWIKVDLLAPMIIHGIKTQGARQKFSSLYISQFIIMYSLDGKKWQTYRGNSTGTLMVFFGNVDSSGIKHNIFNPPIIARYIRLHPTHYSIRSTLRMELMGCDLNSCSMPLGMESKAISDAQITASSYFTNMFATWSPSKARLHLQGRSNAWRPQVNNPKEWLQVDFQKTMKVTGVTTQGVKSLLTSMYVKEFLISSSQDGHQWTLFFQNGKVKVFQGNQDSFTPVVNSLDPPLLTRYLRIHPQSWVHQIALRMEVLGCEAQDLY

[2] = biological target: T2, 562(P4-P2)336 factor VIII mutant (procofactor)
T2 chain 1: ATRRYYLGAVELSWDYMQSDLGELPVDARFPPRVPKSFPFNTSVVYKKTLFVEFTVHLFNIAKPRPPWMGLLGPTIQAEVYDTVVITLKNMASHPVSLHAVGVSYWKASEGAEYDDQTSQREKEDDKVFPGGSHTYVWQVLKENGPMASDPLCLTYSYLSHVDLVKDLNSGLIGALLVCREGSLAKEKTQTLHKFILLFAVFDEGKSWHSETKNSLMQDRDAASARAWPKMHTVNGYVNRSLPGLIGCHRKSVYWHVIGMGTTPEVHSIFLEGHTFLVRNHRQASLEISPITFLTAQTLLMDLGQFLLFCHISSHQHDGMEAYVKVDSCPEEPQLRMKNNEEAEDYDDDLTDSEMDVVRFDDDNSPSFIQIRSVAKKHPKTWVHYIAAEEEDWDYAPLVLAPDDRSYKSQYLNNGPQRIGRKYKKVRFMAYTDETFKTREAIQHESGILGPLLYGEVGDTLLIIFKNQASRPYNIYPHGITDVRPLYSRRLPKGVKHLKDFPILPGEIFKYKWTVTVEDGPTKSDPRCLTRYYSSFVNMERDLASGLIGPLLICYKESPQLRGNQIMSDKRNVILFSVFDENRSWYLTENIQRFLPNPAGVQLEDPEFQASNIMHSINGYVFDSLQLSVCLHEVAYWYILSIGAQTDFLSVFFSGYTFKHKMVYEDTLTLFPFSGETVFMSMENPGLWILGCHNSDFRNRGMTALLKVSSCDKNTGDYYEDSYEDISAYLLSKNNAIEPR
T2 chain 2: T1 chain 3

[3] = biological target: T3, 562(P4-P3′)336 factor VIIIa mutant
T3 chain 1: T1 chain 1 with V333P, D334Q, Q335L
T3 chain 2: T1 chain 2 with V187P, D188Q, Q189L, G191M, N192K, Q193N
T3 chain 3: T1 chain 3

B1: human activated protein C (protein)
chain 1: ANSFLEELRHSSLERECIEEICDFEEAKEIFQNVDDTLAFWSKHVDGDQCLVLPLEHPCASLCCGHGTCIDGIGSFSCDCRSGWEGRFCQREVSFLNCSLDNGGCTHYCLEEVGWRRCSCAPGYKLGDDLLQCHPAVKFPCGRPWKRMEKKRSHL
chain 2: LIDGKMTRRGDSPWQVVLLDSKKKLACGAVLIHPSWVLTAAHCMDESKKLLVRLGEYDLRRWEKWELDLDIKEVFVHPNYSKSTTDNDIALLHLAQPATLSQTIVPICLPDSGLAERELNQAGQETLVTGWGYHSSREKEAKRNRTFVLNFIKIPVVPHNECSEVMSNMVSENMLCAGILGDRQDACEGDSGGPMVASFHGTWFLVGLVSWGEGCGLLHNYGVYTKVSRYLDWIHGHIRDKEAPQKSWAP
- A1 Cleavage (nM A1/min/nM APC) (nM A1/min/nM APC) [1]: 0.6
- A2 Cleavage (nM A2/min/nM APC) (nM A2/min/nM APC) [1]: 0.2
- fold reduction of cleavage rate at the A1 site compared with WT [1]: reduced ˜16 and ˜9-fold, respectively, as compared with the WT protein
- A2 Cleavage (nM A2/min/nM APC) (nM A2/min/nM APC) [2]: 0.6
- A1 Cleavage (nM A1/min/nM APC) (nM A1/min/nM APC) [3]: 7.3
- A2 Cleavage (nM A2/min/nM APC) (nM A2/min/nM APC) [3]: 1.9
- fold increase of A2 subunit cleavage rate [3]: the rate of A2 subunit cleavage for 562(P4-P3′)336 mutant was increased 4 fold

Source: patent US20090118185A1 (UNIVERSITY OF ROCHESTER, published 2009)
